# Earlier results as cited in article PMC3823252.
# pKd: −log10 of the molar value.
# Target: KpOmpA (Klebsiella pneumoniae) (UniProt P24017)
# Sequence (P24017 2-344): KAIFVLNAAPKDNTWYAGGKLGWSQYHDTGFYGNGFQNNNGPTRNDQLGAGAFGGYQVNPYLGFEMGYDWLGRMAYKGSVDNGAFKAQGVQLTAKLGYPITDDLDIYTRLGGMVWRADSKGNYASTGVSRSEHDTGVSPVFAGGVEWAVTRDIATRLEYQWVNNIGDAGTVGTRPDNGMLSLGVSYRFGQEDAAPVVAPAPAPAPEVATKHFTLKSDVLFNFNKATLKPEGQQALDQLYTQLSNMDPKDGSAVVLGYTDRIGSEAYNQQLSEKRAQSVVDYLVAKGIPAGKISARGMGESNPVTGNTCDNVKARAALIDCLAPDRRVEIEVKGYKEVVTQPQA
# Chain of PTX3 (P26022 18-381): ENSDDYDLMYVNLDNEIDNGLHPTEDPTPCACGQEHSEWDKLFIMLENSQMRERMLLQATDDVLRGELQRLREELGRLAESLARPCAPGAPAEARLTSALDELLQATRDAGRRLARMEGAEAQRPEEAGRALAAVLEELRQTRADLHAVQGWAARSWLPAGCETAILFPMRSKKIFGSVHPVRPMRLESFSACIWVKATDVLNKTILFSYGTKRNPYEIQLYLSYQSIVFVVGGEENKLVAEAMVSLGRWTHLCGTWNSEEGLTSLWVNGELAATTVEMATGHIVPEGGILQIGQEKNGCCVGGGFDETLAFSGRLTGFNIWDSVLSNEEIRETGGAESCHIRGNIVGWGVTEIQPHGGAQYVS
substance,measurement,value
PTX3 (from UniProt P26022),pKd,7.30
